The target in test [1] is CNNM2 CBS-pair domain (Homo sapiens) (UniProt Q9H8M5). The settings on record: cited from earlier work.
Test [2] has as its target CNNM3 CBS-pair domain (Homo sapiens) (UniProt Q8NE01). The settings on record: cited from earlier work.
The target in test [3] is CNNM3 CBS-pair domain as a GST fusion (human) (UniProt Q8NE01). Put plainly: ITC; syringe 160 μM PRL2 or PRL3, cell 16 μM CNNM3 CBS-pair domain as a GST fusion; 22 °C; 30 injections of 10 μl; fitted to a single set of identical sites.
Chain of CNNM3 CBS-pair domain as a GST fusion (human) (Q8NE01 309-452): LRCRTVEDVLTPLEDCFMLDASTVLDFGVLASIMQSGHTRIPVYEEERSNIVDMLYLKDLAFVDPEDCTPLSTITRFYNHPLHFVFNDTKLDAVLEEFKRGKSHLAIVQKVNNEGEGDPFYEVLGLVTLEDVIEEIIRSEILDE

The source of these data is PMC5427921, “PRL3 phosphatase active site is required for binding the putative magnesium transporter CNNM3” (Scientific Reports, 2017).

Chain of CNNM2 CBS-pair domain (Homo sapiens) (Q9H8M5 429-584): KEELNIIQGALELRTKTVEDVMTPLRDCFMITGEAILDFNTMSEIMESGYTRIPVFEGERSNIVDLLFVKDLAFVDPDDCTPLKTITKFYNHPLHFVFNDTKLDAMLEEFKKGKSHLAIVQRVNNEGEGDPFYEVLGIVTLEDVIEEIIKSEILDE
Chain of CNNM3 CBS-pair domain (Homo sapiens) (Q8NE01 309-452): as the sequence (Q8NE01 309-452) above
Chain of PRL2 (Q12974 1-164): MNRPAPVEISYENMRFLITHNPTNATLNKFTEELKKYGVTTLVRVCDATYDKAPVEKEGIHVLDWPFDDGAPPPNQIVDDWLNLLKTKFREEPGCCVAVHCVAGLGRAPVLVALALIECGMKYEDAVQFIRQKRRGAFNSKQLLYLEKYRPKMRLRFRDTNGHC
Chain of PRL1 (Q93096 1-170): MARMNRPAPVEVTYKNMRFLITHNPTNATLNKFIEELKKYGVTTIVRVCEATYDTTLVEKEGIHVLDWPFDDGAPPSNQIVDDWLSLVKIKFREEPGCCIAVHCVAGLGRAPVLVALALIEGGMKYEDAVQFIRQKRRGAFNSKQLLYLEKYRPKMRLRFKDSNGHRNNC

For PRL1 (from UniProt Q93096), the Kd in test [1] is 640 nM.
Regarding PRL2 (from UniProt Q12974), the Kd in test [2] is 25 nM.
In test [3], “PRL2 phosphatase (as used in ITC) (from UniProt Q12974 1-167) (enzyme)” displayed a dH of -16600 cal/mol and a stoichiometry N of 1.02.
